# Measurements reported in US20210380703A1 (RIGEL PHARMACEUTICALS, published 2021).
# How the values were obtained:
# Human ACVR2A = biological target: T1, Human ACVR2A (human, UniProt P27037 20-135, limits assumed); experiment: ELISA
# T1 construct: also called activin receptor, type II A
# Outline: (§1)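 mAb binding by ELISA; antigens: hu ACVR2A, mu ACVR2A; pos ctrl biotinylated goat anti-hu kappa LC; neg ctrl hu Fc.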
# Mouse ACVR2A = Mouse ACVR2A (mouse, UniProt P27038 20-135, limits assumed); experiment: ELISA
# Outline: as §1
# Goat anti-Human Kappa = biological target: T2, Goat anti-Human Kappa; experiment: ELISA; positive control
# T2 construct: Positive control; also called biotinylated goat anti-human kappa light chain
# Outline: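 ELISA measured binding of ACVR2A-specific monoclonal antibodies to human and mouse ACVR2A. Biotinylated goat anti-human kappa light chain served as positive control and human Fc as negative control.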
# Also: test concentration or dose not given here.
# Sequence of Mouse ACVR2A (P27038 20-135 limits assumed): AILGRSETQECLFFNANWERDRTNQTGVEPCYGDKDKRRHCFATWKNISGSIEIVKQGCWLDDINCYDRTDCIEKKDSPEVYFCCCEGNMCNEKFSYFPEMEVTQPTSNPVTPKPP
# T1 sequence (P27037 20-135 limits assumed): as the sequence (P27038 20-135 limits assumed) above, with R20K, I73V counted along it
Binder,optical density (Human ACVR2A),optical density (Mouse ACVR2A),optical density (Goat anti-Human Kappa)
"372_E08 (antibody, V domains shown, VH/VL only) VH: EVQLLESGGGLVQPGGSLRLSCAASGFTFSDYSMNWVRQAPGKGLEWVSNINYNGGYTSYADSVKGRFTISRDNSKNTLYLQMNSLRAEDTAVYYCARGATWHDTHLDYWGQGTLVTVSS VL: DIQMTQSPSSLSASVGDRVTITCRASQSIITYLNWYQQKPGKAPKLLIYAATSRASGVPSRFSGSGSGTDFTLTISSLQPEDFATYYCQQSYNLPLTFGGGTKVEIK",2.56 OD,2.82 OD,3.51 OD
"373_F07 (antibody, V domains shown, VH/VL only) VH: EVQLLESGGGLVQPGGSLRLSCAASGFTFSSYSMNWVRQAPGKGLEWVSGINYNSGYKSYADSVKGRFTISRDNSKNTLYLQMNSLRAEDTAVYYCARGATWHDTHLDYWGQGTLVTVSS VL: DIQMTQSPSSLSASVGDRVTITCRASQSILSYLNWYQQKPGKAPKLLIYAATSLASGVPSRFSGSGSGTDFTLTISSLQPEDFATYYCQQSYETPLTFGGGTKVEIK",3.61 OD,3.62 OD,3.13 OD
"373_D06 (antibody, V domains shown, VH/VL only) VH: EVQLLESGGGLVQPGGSLRLSCAASGFTFSSYSMNWVRQAPGKGLEWVAGINYNGGYTSYADSVKGRFTISRDNSKNTLYLQMNSLRAEDTAVYYCARGATWHDTHLDYWGQGTLVTVSS VL: DIQMTQSPSSLSASVGDRVTITCRASQSIVTYLNWYQQKPGKAPKLLIYAATSRASGVPSRFSGSGSGTDFTLTISSLQPEDFATYYCQQSYDTPLTFGGGTKVEIK",3.63 OD,3.57 OD,3.21 OD
"373_B09 (antibody, V domains shown, VH/VL only) VH: EVQLLESGGGLVQPGGSLRLSCAASGFTFDSYSMNWVRQAPGKGLEWVSGINYNGGYKSYADSVKGRFTISRDNSKNTLYLQMNSLRAEDTAVYYCARGATWHDTHLDYWGQGTLVTVSS VL: DIQMTQSPSSLSASVGDRVTITCRASQSILSYLNWYQQKPGKAPKLVIYAATSLASGVPSRFSGSGSGTDFTLTISSLQPEDFATYYCQQSYETPLTFGGGTKVEIK",3.6 OD,3.62 OD,3.24 OD
"374_D09 (antibody, V domains shown, VH/VL only) VH: EVQLLESGGGLVQPGGSLRLSCAASGFTFDSYGMNWVRQAPGKGLEWVANINYNGGYKGYADSVKGRFTISRDNSKNTLYLQMNSLRAEDTAVYYCARGATWHDTHLDYWGQGTLVTVSS VL: DIQMTQSPSSLSASVGDRVTITCRASQSIISYVNWYQQKPGKAPKLLIYAATSLASGVPSRFSGSGSGTDFTLTISSLQPEDFATYYCQQSYDTPLTFGGGTKVEIK",3.61 OD,3.65 OD,3.1 OD
"374_C10 (antibody, V domains shown, VH/VL only) VH: EVQLLESGGGLVQPGGSLRLSCAASGFTFSSYSMNWVRQAPGKGLEWVSSINYNGGYKGYADSVKGRFTISRDNSKNTLYLQMNSLRAEDTAVYYCARGATWHDTHLDYWGQGTLVTVSS VL: DIQMTQSPSSLSASVGDRVTITCRASQSIVTYLNWYQQKPGKAPKLLIYAATSLASGVPSRFSGSGSGTDFTLTISSLQPEDFATYYCQQSYNTPLTFGGGTKVEIK",3.57 OD,3.67 OD,3.08 OD
"372_H11 (antibody, V domains shown, VH/VL only) VH: EVQLLESGGGLVQPGGSLRLSCAASGFTFSSYGMHWVRQAPGKGLEWVAGINYNGGYTSYADSVKGRFTISRDNSKNTLYLQMNSLRAEDTAVYYCARGATWHDTHLDYWGQGTLVTVSS VL: DIQMTQSPSSLSASVGDRVTITCRASQSILSYVNWYQQKPGKAPKLLIYAATSRASGVPSRFSGSGSGTDFTLTISSLQPEDFATYYCQQSYENPLTFGGGTKVEIK",2.62 OD,2.86 OD,3.65 OD
"372_F02 (antibody, V domains shown, VH/VL only) VH: EVQLLESGGGLVQPGGSLRLSCAASGFTFSSYGMHWVRQAPGKGLEWVASINYNGGYTSYADSVKGRFTISRDNSKNTLYLQMNSLRAEDTAVYYCARGATWHDTHLDYWGQGTLVTVSS VL: DIQMTQSPSSLSASVGDRVTITCRASQSILTYLNWYQQKPGKAPKLVIYAATSRHSGVPSRFSGSGSGTDFTLTISSLQPEDFATYYCQQSYDLPLTFGGGTKVEIK",3.01 OD,3.09 OD,3.69 OD
"374_A04 (antibody, V domains shown, VH/VL only) VH: EVQLLESGGGLVQPGGSLRLSCAASGFTFSSYSMNWVRQAPGKGLEWVAGINYNGGYTSYADSVKGRFTISRDNSKNTLYLQMNSLRAEDTAVYYCARGATWHDTHLDYWGQGTLVTVSS VL: DIQMTQSPSSLSASVGDRVTITCRASQSILTYLNWYQQKPGKAPKLVIYAATSRASGVPSRFSGSGSGTDFTLTISSLQPEDFATYYCQQSYDTPLTFGGGTKVEIK",3.65 OD,3.68 OD,2.99 OD

# Next, values leading:
optical density (Human ACVR2A),optical density (Mouse ACVR2A),optical density (Goat anti-Human Kappa),Binder
3.6 OD,3.6 OD,2.92 OD,"374_A05 (antibody, V domains shown, VH/VL only) VH: EVQLLESGGGLVQPGGSLRLSCAASGFTFSDYGMNWVRQAPGKGLEWVANINYNGGYKGYADSVKGRFTISRDNSKNTLYLQMNSLRAEDTAVYYCARGATWHDTHLDYWGQGTLVTVSS VL: DIQMTQSPSSLSASVGDRVTITCRASQSIVRYLNWYQQKPGKAPKLVIYAATSLASGVPSRFSGSGSGTDFTLTISSLQPEDFATYYCQQSYELPLTFGGGTKVEIK"
3.66 OD,3.67 OD,3 OD,"374_G05 (antibody, V domains shown, VH/VL only) VH: EVQLLESGGGLVQPGGSLRLSCAASGFTFSSYSMNWVRQAPGKGLEWVSNINYNSGYKGYADSVKGRFTISRDNSKNTLYLQMNSLRAEDTAVYYCARGATWHDTHLDYWGQGTLVTVSS VL: DIQMTQSPSSLSASVGDRVTITCRASQSIISYLNWYQQKPGKAPKLLIYAATSRASGVPSRFSGSGSGTDFTLTISSLQPEDFATYYCQQSYDLPLTFGGGTKVEIK"
3.64 OD,3.62 OD,3.07 OD,"373_A06 (antibody, V domains shown, VH/VL only) VH: EVQLLESGGGLVQPGGSLRLSCAASGFTFSSYSMNWVRQAPGKGLEWVSGINYNGGYKSYADSVKGRFTISRDNSKNTLYLQMNSLRAEDTAVYYCARGATWHDTHLDYWGQGTLVTVSS VL: not shown"
3.63 OD,3.65 OD,3.05 OD,"374_D04 (antibody, V domains shown, VH/VL only) VH: EVQLLESGGGLVQPGGSLRLSCAASGFTFSSYSMNWVRQAPGKGLEWVAGINYNGGYTSYADSVKGRFTISRDNSKNTLYLQMNSLRAEDTAVYYCARGATWHDTHLDYWGQGTLVTVSS VL: DIQMTQSPSSLSASVGDRVTITCRASQSILSYLNWYQQKPGKAPKLVIYAATSRHSGVPSRFSGSGSGTDFTLTISSLQPEDFATYYCQQSYDTPLTFGGGTKVEIK"
3.59 OD,3.56 OD,3.22 OD,"373_G02 (antibody, V domains shown, VH/VL only) VH: EVQLLESGGGLVQPGGSLRLSCAASGFTFSSYSMNWVRQAPGKGLEWVSGINYNGGYTSYADSVKGRFTISRDNSKNTLYLQMNSLRAEDTAVYYCARGATWHDTHLDYWGQGTLVTVSS VL: DIQMTQSPSSLSASVGDRVTITCRASQSIITYLNWYQQKPGKAPKLLIYAATSRASGVPSRFSGSGSGTDFTLTISSLQPEDFATYYCQQSYSSPLTFGGGTKVEIK"
